B1: TAT-d/n-ATF5: TAT-linked dominant-negative ATF5 peptide, recombinant; probably SEQ ID NO: 17 (protein)
chain: MGSSHHHHHHSSGLVPRGSHMLEYGRKKRRQRRRYPYDVPDYAMASMTGGQQMGRDPDLEQRAEELARENEELLEKEAEELEQENAELEGECQGLEARNRELRERAESV
B2: synthetic PEN-d/n-ATF5: chemically synthesized Penetratin-linked dominant-negative ATF5 peptide; probably SEQ ID NO: 19 (peptide)
chain: RQIKIWFQNRRMKWKKLEQRAEELARENEELLEKEAEELEQENAELEGECQGLEARNRELKERAESV

Assays:
[1] = tested on: MDA-MB-468 (human breast cancer); assay: Cell line susceptibility testing; type: cell-based; conditions: 1-3 μM range
Method: (§1) For example, but not by way of limitation, cell lines shown through testing to be susceptible to TAT-d/n-ATF5 (1-3 μM range) include: U87 (human glioblastoma); U373 (human glioblastoma); LN229 (human glioblastoma); C6 (rat glioblastoma); Mel501 (human melanoma); H2452 (human mesothelioma); MDA-MB-468 (human breast cancer). In addition, a non-limiting list of cell lines shown through testing to be susceptible to PEN-d/n-ATF5 (3 μM) include: Panc-1 (human pancreatic cancer); SH-SYSY (human neuroblastoma cells); and HCT-116 (colon-carcinoma cancer). The method of the present invention can be performed in vitro as well as in vivo in a subject. As used herein, “apoptosis” refers to cell death which is wholly or partially genetically controlled.

[2] = tested on: U373 (human glioblastoma); assay: Cell line susceptibility testing; type: cell-based; conditions: 1-3 μM range
Method: as §1

[3] = tested on: LN229 (human glioblastoma); assay: Cell line susceptibility testing; type: cell-based; conditions: 1-3 μM range
Method: as §1

U87 (human glioblastoma) = assay: Cell line susceptibility testing; type: cell-based; conditions: 1-3 μM range
Method: as §1

C6 (rat glioblastoma) = assay: Cell line susceptibility testing; type: cell-based; conditions: 1-3 μM range
Method: as §1

[4] = tested on: H2452 (human mesothelioma); assay: Cell line susceptibility testing; type: cell-based; conditions: 1-3 μM range
Method: as §1

Mel501 (human melanoma) = assay: Cell line susceptibility testing; type: cell-based; conditions: 1-3 μM range
Method: as §1

DDIT3 (CHOP) = assay: Western immunoblotting for CHOP in various tumor cell lines; type: cell-based; conditions: times and doses per FIG. 15
Method: Cells were treated with TAT-d/n-ATF5 for the indicated times at the indicated doses (in μM) and then harvested and analyzed by Western immunoblotting for expression of CHOP and other non-responsive proteins.
TAT-d/n-ATF5 (TAT-ZIP) peptide induces expression of the pro-death gene DDIT3 (CHOP) in various tumor cell lines. Cells were treated with TAT-d/n-ATF5 for the times and doses (in μM) indicated in FIG. 15 and then harvested and analyzed by Western immunoblotting for expression of CHOP and other non-responsive proteins.

MEL501 melanoma cells = assay: Apoptotic nuclei (Hoescht dye) in melanoma cells; type: cell-based, human; conditions: four days, concentrations in μM per FIG. 13
Method: TAT-linked dominant-negative ATF5 peptide at the indicated concentrations (in μM) was added to medium of MEL501 melanoma cells. Four days later the cells were stained with Hoescht dye and the cells were stained for proportion with apoptotic nuclei.
TAT-linked dominant-negative ATF5 peptide was added to medium of MEL501 melanoma cells at the concentrations (in μM) indicated in FIG. 13. Four days later the cells were stained with Hoescht dye and the cells were stained for proportion with apoptotic nuclei.

[5] = tested on: U87 human glioblastoma cells; assay: Cell viability, MTA assay; type: cell-based
Method: (§2) FIG. 19 depicts recombinant TAT-d/n-ATF5 (3 μM) treatment for 3-5 days decreasing viability of two human and one mouse GMB cell line as established by MTA assay.
FIG. 20 depicts synthetic PEN-d/n-ATF5 treatment decreasing cell viability of cultured U87 human glioblastoma cells as established by MTA assay. 5 days treatment at indicated concentrations (μM).
5 days treatment at indicated concentrations (μM), as detected using an MTA assay.

U87 glioblastoma cells = assay: Combination with temozolomide: apoptotic nuclei in U87 cells; type: cell-based, human; conditions: one day, sub-lethal TZIP 1 μM and TMZ 50 μM, separately or in combination
Method: (§3) Cells were cultured for one day with sub-lethal levels of TAT-d/n-ATF5 (TZIP 1 μM) and TMZ (50 μM) either separately or in combination, and then assessed for proportion of cells with apoptotic nuclei. TMZ is presently the first-line treatment for human GBM. The data reveal that TAT-d/n-ATF5 not only functions in presence of TMZ, but that the two drugs act in synergy to kill GBM cells.
as §3, with “As outlined in FIG. 18, cells” for “Cells”

endogenous ATF5 = assay: Western immunoblotting for endogenous ATF5 in U373 glioblastoma cells; type: cell-based, human; conditions: 17 hrs
endogenous ATF5, sequence (Q9Y2D1 208-282 limits assumed): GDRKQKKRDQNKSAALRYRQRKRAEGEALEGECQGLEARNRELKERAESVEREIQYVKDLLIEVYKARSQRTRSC
Method: (§4) TAT-linked dominant-negative ATF5 peptide at the indicated concentrations (in μM) was added to medium of U373 glioblastoma cells for 17 hrs day and the cells were then harvested and analyzed by Western immunoblotting for levels of endogenous ATF5. […] As previous studies have shown that tumor cells require endogenous ATF5 to survive, the mechanism of action by which the cell-penetrating TAT-ZIP peptide kills may be by causing loss of the endogenous ATF5 protein. Note also the smear above the endogenous ATF5 when the TAT-ZIP peptide is present.
as §4, with “ATF5 peptide was added” for “ATF5 peptide at the indicated concentrations (in μM) was added”, “glioblastoma cells at the concentrations (in μM) indicated in FIG. 14 for 17” for “glioblastoma cells for 17”, “to survive, but without being bound by theory, the mechanism” for “to survive, the mechanism”

BCL2 survival protein = assay: Western immunoblotting for BCL2 in U87 cells; type: cell-based, human; conditions: 30 hrs
Method: (§5) Cultured U87 human glioblastoma cells were treated with the indicated concentrations of TATZIP (TAT-d/n-ATF5 peptide) (in μM) for 30 hrs. The cells were then harvested and assessed by Western immunoblotting for expression of the survival protein BCL2. These findings indicate that in addition to elevating pro-death CHOP, TAT-d/n-ATF5 may also kill tumor cells by reducing their levels of the BCL2 survival protein.
as §5, with “As outlined in FIG. 17, cultured” for “Cultured”

U87 cells = assay: Apoptotic nuclei in U87 cells after CHOP silencing with siRNA; type: cell-based, human; conditions: siCHOP versus control siRNA, then peptide for 2 days
Method: Cells were treated with siCHOP to silence CHOP expression (top Western immunoblot) or with control siRNA. They were then exposed to TAT-d/n-ATF5 for 2 days and assessed for proportion of cells with apoptotic nuclei. The data support the idea that part of the mechanism by which TAT-d/n-ATF5 kills tumor cells is by increasing their expression of CHOP which in turn mediates death.
Cells were treated with siCHOP to silence CHOP expression (top Western immunoblot of FIG. 16) or with control siRNA. They were then exposed to TAT-d/n-ATF5 for 2 days and assessed for proportion of cells with apoptotic nuclei.

U373 = assay: Cell viability, MTA assay; type: cell-based, human; conditions: 3 μM, 3-5 days
Method: as §2

[6] = tested on: U87 human glioblastoma cells; type: cell-based
Text: (§6) FIG. 21 depicts recombinant TAT-d/n-ATF5 treatment promoting death of cultured U87 human glioblastoma cells as indicated by Annexin V/PI staining and flow cytometry. Proportions of viable cells are shown in lower left quadrant (88% control vs 58% treated). Dying cell proportions are in the lower right and upper right quadrants (9% in controls vs 36% in treated).
as §6, with “As outlined in FIG.” for “FIG.”, “21, Recombinant” for “21 depicts recombinant”, “promotes” for “treatment promoting”

MSG Cells = assay: Cell viability, MTA assay; type: cell-based, mouse; conditions: 3 μM, 3-5 days
Method: as §2

[7] = tested on: primary GS9-6 human glioblastoma stem cells; assay: Annexin V/PI staining and flow cytometry of spheres; type: cell-based; conditions: 6 days of treatment
Text: FIG. 22 depicts synthetic PEN-d/n-ATF5 promoting apoptotic death of primary GS9-6 human glioblastoma stem cells growing in culture as spheres. 6 days of treatment and data determined by Annexin V/PI staining and flow cytometry
FIG. 23 depicts recombinant PEN-d/n-ATF5 promoting apoptotic death of primary GS9-6 human glioblastoma stem cells growing in culture as spheres. 5 days of treatment and data determined by Annexin V/PI staining and flow cytometry.
Data reflects 6 days of treatment. Data determined by Annexin V/PI staining and flow cytometry.
5 days treatment. Data determined by Annexin V/PI staining and flow cytometry.

| Molecule | susceptibility of cell line [1] | susceptibility of cell line [2] | susceptibility of cell line [3] | susceptibility of cell line (U87 (human glioblastoma)) | susceptibility of cell line (C6 (rat glioblastoma)) | susceptibility of cell line [4] | susceptibility of cell line (Mel501 (human melanoma)) | expression of CHOP (DDIT3 (CHOP)) | proportion of cells with apoptotic nuclei (MEL501 melanoma cells) | cell viability ([5]; 3 μM, 3-5 days) | cell killing in combination with temozolomide (proportion of cells with apoptotic nuclei) (U87 glioblastoma cells) | levels of endogenous ATF5 (endogenous ATF5) | expression of the survival protein BCL2 (BCL2 survival protein) | effect of silencing of CHOP with siRNA on death caused by the peptide (U87 cells) | cell viability (U373) | proportion of viable cells (lower left quadrant) [6] | dying cell proportion (lower right and upper right quadrants) ([6]; treated, controls 9%) | cell viability (MSG Cells) | apoptotic death [7] | cell viability ([5]; 5 days treatment, concentrations (μM) per FIG. 20) |
| --- | --- | --- | --- | --- | --- | --- | --- | --- | --- | --- | --- | --- | --- | --- | --- | --- | --- | --- | --- | --- |
| B1 | susceptible | susceptible | susceptible | susceptible | susceptible | susceptible | susceptible | elevation of CHOP in all cases | promoted apoptosis in a dose-dependent fashion | decreases viability | synergizes with temozolomide (TMZ) to kill | greatly reduces expression of endogenous ATF5 | down-regulates BCL2 survival protein | partially protects | decreases viability | 58% | 36% | decreases viability | – | – |
| B2 | – | – | – | – | – | – | – | – | – | – | – | – | – | – | – | – | – | – | promotes apoptotic death | decreases cell viability |
